Data taken from patent EP1601683B1.

Molecular target: monoclonal anti-H2a antibody of hybridoma clone B9 (ECACC provisional accession number 04030801)
Test: competitive ELISA, B9 ascitic fluid preincubated overnight with free specific peptide, then added to the peptide-coated plate

CEKRRNATGEVA [H2 carboxyterminal peptide (SEQ ID NO. 1, …)]
% inhibition of the reaction: 81%
